These are literature values, as cited in article PMC7261628.

The data set concerns the target Cathepsin B propeptide (prosegment) (UniProt P07858). Kind of data set: Enzyme inhibition kinetics.

In general, Ki refers to a measure of affinity in units of concentration, obtained from inhibition or displacement. As to Cathepsin B His110Ala mutant H110A, for the setting “pH 4.0”, the Ki is 2 nM. Cathepsin B, mature enzyme (wild type): the Ki was 82 nM (pH 4.0) and 3.7 nM (pH 6.0).
